# Changes are numbered by the printed parent chain.
# B1: Antibody I-HX-2 (antibody, human IgG4 S228P, kappa, V domains shown)
# VH: VQLVQSGAEVKKPGASVKVSCKASGYSFTSYWMHWVRQAPGQGLEWMGAIYPGNSDTSYNQKFKGRVTITAVTSASTAYMELSSLRSEDTAVYYCTRWGDGYYHAMDHWGQGTLVTVSS
# VL: DIQMTQSPSSLSASVGDRVTITCRASQDIGNTLNWLQQKPGKAIKRLIYATSSLDSGVPKRFSGSRSGSDYSLTISSLQPEDFATYYCLQYASSPFTFGQGTKLEIKR
# notes: also called antibody I sample; candidate antibody I sample
# B2: Antibody I-HX-5 (antibody, human IgG4 S228P, kappa, V domains shown)
# VH: VQLVQSGAEVKKPGASVKVSCKASGYTFTSYWMHWVRQAPGQGLEWMGAIYWAHSETSYNQKFKGRVTITAVTSASTAYMELSSLRSEDTAVYYCTHWLEVYFHGMDHWGQGTLVTVSS
# VL: B1 VL with D28N, I29G, G30I, A50V, Q90Y, S94Y, P95F
# B3: Antibody I-HX-8 (antibody, human IgG4 S228P, kappa, V domains shown)
# VH: B2 VH with T27S, S30T, W52P, A53V, L99I, V101A, Y102F, G105L, D107Q
# VL: B1 VL with D28N, N31Q, A50S
# B4: Antibody I-HX-3 (antibody, human IgG4 S228P, kappa, V domains shown)
# VH: B2 VH with F28Y, T29Y, S30F, W52H, A53G, H54N, L99A, E100D, V101A, D107N
# VL: B1 VL with D28N, G30A, A50V, T51S, Q90Y, S94Y, P95F
# B5: Antibody I-HX-4 (antibody, human IgG4 S228P, kappa, V domains shown)
# VH: B2 VH with F28Y, T29N, S30F, W52H, A53V, H54Q, E56D
# VL: B1 VL with D28E, N31Q, A50V, Q90Y, Y91F
# B6: Antibody I-HX-7 (antibody, human IgG4 S228P, kappa, V domains shown)
# VH: B1 VH with S30T, P52W, G53A, N54H, D56E
# VL: B1 VL with D28E, N31Q, Q90Y, S94T
# B7: Antibody I-HX-1 (antibody, human IgG4 S228P, kappa, V domains shown)
# VH: B1 VH with F28Y, T29Y, S30F, P52H, G53I, D100E, D107N
# VL: B1 VL with I29L, T51S, Q90Y, S94T
# notes: expressed in HEK 293 or CHO cells
# B8: Antibody I-HX-6 (antibody, human IgG4 S228P, kappa, V domains shown)
# VH: B1 VH with T29S, N54Q, D56E, R97H, G99I, Y103F, A105V
# VL: B1 VL with D28E, N31Q, A50G, Q90N, A92I
# B9: Antibody II-HX-15 (antibody, human IgG4 S228P, kappa, V domains shown)
# VH: VQLVQSGAEVKKPGASVKVSCKASGYTFTSYVMHWVRQAPGQGLEWMGYINPYNDGTKYNEKFKGRVTITSDKSASTAYMELSSLRSEDTAVYYCAWSGAIFEYWGQGTLVTVSS
# VL: TQSPSFLSASVGDRVTITCSASSSVSYMHWFQQKPGKSPKLWIYSTSNLASGVPARFSGSGSGTSYSLTISSLQPEDFATYYCQQRSSYPYTFGQGTKLEIKR
# notes: also called antibody II sample; candidate antibody II sample
# B10: Antibody II-HX-17 (antibody, human IgG4 S228P, kappa, V domains shown)
# VH: VQLVQSGAEVKKPGASVKVSCKASGYFFSSFVMHWVRQAPGQGLEWMGYINHFQDATKYNEKFKGRVTITSDKSASTAYMELSSLRSEDTAVYYCARSVGITDYWGQGTLVTVSS
# VL: B9 VL with S24T, S26Y, T46Y, P90H
# B11: Antibody II-HX-14 (antibody, human IgG4 S228P, kappa, V domains shown)
# VH: B10 VH with H52Y, F53Y, Q54N, V99A, G100A, I101L, T102S, D103E
# VL: B9 VL with S24T, V25I, S26T, S45Y, Q85N, S87T, Y89F, P90H
# B12: Antibody II-HX-11 (antibody, human IgG4 S228P, kappa, V domains shown)
# VH: VQLVQSGAEVKKPGASVKVSCKASGYYTSSPVMHWVRQAPGQGLEWMGYINYFYDGTKYNEKFKGRVTITSDKSASTAYMELSSLRSEDTAVYYCAKSAIAFEYWGQGTLVTVSS
# VL: B9 VL with S24T, S26Y, Q85Y, P90W
# B13: Antibody II-HX-10 (antibody, human IgG4 S228P, kappa, V domains shown)
# VH: B9 VH with T27S, F28T, T29S, Y31F, P52Y, G56A
# VL: B9 VL with T46Y, Q85N, S87T, Y89F, P90H
# B14: Antibody II-HX-16 (antibody, human IgG4 S228P, kappa, V domains shown)
# VH: B9 VH with T27F, F28Y, Y53F, N54Q, G56I, G99A, I101L, F102S
# VL: B9 VL with Q85N, S87Y
# B15: Antibody II-HX-13 (antibody, human IgG4 S228P, kappa, V domains shown)
# VH: B9 VH with T27S, W97R, G99I, A100G, F102T, E103D
# VL: B9 VL with V25I, Y89F
# B16: Antibody II-HX-18 (antibody, human IgG4 S228P, kappa, V domains shown)
# VH: B9 VH with T27Y, F28T, T29S, Y31P, W97K, A100G, F102S, E103D
# VL: B9 VL with V25A, T46Y, Q85Y, S87T
# B17: Antibody II-HX-19 (antibody, human IgG4 S228P, kappa, V domains shown)
# VH: B9 VH with T27Y, F28T, P52H, Y53F, N54Q, G56A
# VL: B9 VL with V25G, S26Y, S45T
# Biological target: T1, human PD-L1 antigen (Beijing Sino Biological Inc, Catalog No. #10084-H08H-100) (human, UniProt Q9NZQ7 19-239)
# T1 construct: Bought antigen; also called the antigen
# Experiment: BLI (ForteBIO Octet), antibody captured on sensor, human PD-L1 in solution
# Procedure: (§1) To determine the binding affinity of a candidate antibody to an antigen, Bio-layer Interferometry (ForteBIO Octet system) was used for determining the affinity of the antibody to the antigen. The association constant, dissociation constant and affinity constant of the antibody with the antigen were determined through qualitative analyses.
# (§2) The human PD-L1 antigen was added, and binding kinetic curves were determined by the ForteBIO Octet platform.
# (§3) Kinetic constants were obtained from the preceding determined kinetic curves.
# T1 sequence (Q9NZQ7 19-239 limits assumed): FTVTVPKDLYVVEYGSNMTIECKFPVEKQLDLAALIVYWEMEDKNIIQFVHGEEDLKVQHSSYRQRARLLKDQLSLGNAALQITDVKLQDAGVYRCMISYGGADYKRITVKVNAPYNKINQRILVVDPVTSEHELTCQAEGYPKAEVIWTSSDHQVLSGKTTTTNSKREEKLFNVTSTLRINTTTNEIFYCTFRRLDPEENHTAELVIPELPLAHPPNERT
Binder,Kd,koff,kon
B1,0.0291 nM,2.7e-07 s⁻¹,9280 M⁻¹ s⁻¹
B2,0.459 nM,3.27e-06 s⁻¹,7120 M⁻¹ s⁻¹
B3,0.259 nM,1.81e-06 s⁻¹,6990 M⁻¹ s⁻¹
B4,0.271 nM,1.92e-06 s⁻¹,7080 M⁻¹ s⁻¹
B5,0.11 nM,8.95e-07 s⁻¹,8100 M⁻¹ s⁻¹
B6,0.047 nM,4.27e-07 s⁻¹,9090 M⁻¹ s⁻¹
B7,0.046 nM,4.1e-07 s⁻¹,8920 M⁻¹ s⁻¹
B8,0.0481 nM,4.29e-07 s⁻¹,8930 M⁻¹ s⁻¹

# Biological target: T1, human PD-L1 antigen (Beijing Sino …)
# Experiment: as above
# Remark: another data set of the same source
# Procedure: as §1, §2, §3
Binder,Kd,koff,kon
B9,0.149 nM,5.6e-07 s⁻¹,3760 M⁻¹ s⁻¹
B10,1.82 nM,4.92e-06 s⁻¹,2710 M⁻¹ s⁻¹
B11,3.19 nM,9.55e-06 s⁻¹,2990 M⁻¹ s⁻¹
B12,2.8 nM,7.71e-06 s⁻¹,2750 M⁻¹ s⁻¹
B13,3.67 nM,9.2e-06 s⁻¹,2510 M⁻¹ s⁻¹
B14,3.71 nM,9.19e-06 s⁻¹,2500 M⁻¹ s⁻¹
B15,0.707 nM,2.13e-06 s⁻¹,3010 M⁻¹ s⁻¹
B16,0.624 nM,1.92e-06 s⁻¹,3080 M⁻¹ s⁻¹
B17,1.23 nM,3.75e-06 s⁻¹,3040 M⁻¹ s⁻¹
